Test [1] addresses T1, human PD-L1 (construct not stated) (human, UniProt Q9NZQ7 19-239, limits assumed).
T1 construct: also called B7-H1 (PD-L1); PD-L1 protein
Put plainly: BLI Octet Red 96, affinity ranking. The source says:
To explore the binding kinetics of the humanized antibody, this example performed the affinity ranking by using Octet Red 96.

Test [2] concerns the target T2, human PD-L1-his taq protein (human, UniProt Q9NZQ7 19-239, limits assumed).
T2 construct: also called recombinant PD-L1 protein; recombinant human PD-L1; not shown: his tag
Nature of the test: SPR Biacore T200, antibody captured, PD-L1-his injected. The method in brief: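 HL1210-3 mouse mAb was captured via anti-mouse Fc antibody on a CM5 chip, then serially diluted PD-L1-his was injected for 3 min […]. Dissociation was followed for 900 s.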

The target of test [3] is T3, human PD-L1 expressed on mammalian cells (human, UniProt Q9NZQ7 19-290).
T3 construct: whole, on cells; also called PDL1-CHOK1 cells; PDL1-Raji cells
T3 sequence (Q9NZQ7 19-290): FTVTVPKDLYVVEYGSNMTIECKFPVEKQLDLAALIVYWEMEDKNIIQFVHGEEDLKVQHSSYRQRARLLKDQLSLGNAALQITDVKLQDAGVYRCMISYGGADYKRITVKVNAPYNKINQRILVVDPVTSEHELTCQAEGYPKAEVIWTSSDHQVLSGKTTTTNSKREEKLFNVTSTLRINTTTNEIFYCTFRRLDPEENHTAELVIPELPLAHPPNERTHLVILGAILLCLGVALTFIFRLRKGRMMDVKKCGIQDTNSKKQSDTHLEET
Nature of the test: FACS receptor blocking on PDL1-CHOK1 cells, competitor Bio-PD1 (30 µg/ml). As to the method: To evaluate the blocking effect of humanized antibodies on human PD-L1 expressed on mammalian cells to bind to its receptor PD-1, the FACS-based receptor blocking assay was employed. Briefly, PDL1-CHOK1 cells were firstly incubated with 3-fold serious diluted HL1210-3 mouse mAb starting at 20 μg/ml at RT for 1 hour. After wash by FACS buffer (PBS with 2% FBS), the biotin-labeled huPD-1 were added to each well and incubated at RT for 1 hour. Then, the Streptavidin-PE was added to each well for 0.5 hour post twice wash with FACS buffer. The mean florescence intensity (MFI) of PE was evaluated by FACSAriaIII.

Test [4] concerns the target T4, human PD-L1-Fc protein (human, UniProt Q9NZQ7 19-239).
T4 construct: Coated on ELISA plates; also called huPD-L1; not shown: Fc part
Nature of the test: ELISA on coated human PD-L1-Fc; EC50 table has no unit, x axis Ab(nM). As to the method: (§1) To evaluate the antigen binding activity, the humanized antibodies were subjected to ELISA test. Briefly, microtiter plates were coated with human PD-L1-Fc protein at 0.1 μg/ml in PBS, 100 μl/well at 4° C. overnight, then blocked with 100 μl/well of 5% BSA. Five-fold dilutions of humanized antibodies starting from 10 μg/ml were added to each well and incubated for 1-2 hours at RT. The plates were washed with PBS/Tween and then incubate with […] antibody conjugated with Horse Radish Peroxidase (HRP) for 1 hour at RT. After washing, the plates were developed with TMB substrate and analyzed by spectrophotometer at OD 450-630 nm.

The target of test [5] is T4, human PD-L1-Fc protein. The description is as above. As to the method: as §1
This is another data set of the same source.

In test [6] the target is T4, human PD-L1-Fc protein. The test is described as above. As to the method:
as §1
This is another data set of the same source.

Test [7] deals with T4, human PD-L1-Fc protein. The description is as above. As to the method: as §1
This is another data set of the same source.

Test [8] concerns the target T4, human PD-L1-Fc protein. The description is as above. As to the method: as §1
The source holds these as a separate data set.

Test [9] has as its target T3, human PD-L1 expressed on mammalian cells. Nature of the test: flow cytometry (MFI) on PDL1-CHOK1 cells; EC50 table has no unit, x axis Antibodies(nM). As to the method: (§2) To evaluate the antigen binding property, the humanized antibodies were analyzed for its binding to mammalian expressed PD-L1 by FACS. Briefly, PDL1-CHOK1 cells were firstly incubated with 5-fold serious diluted humanized antibodies starting at 2 μg/ml at RT for 1 hour. After wash by FACS buffer (PBS with 2% FBS), the alexa 488-anti-human IgG antibody was added to each well and incubated at RT for 1 hour. The MFI of Alexa 488 was evaluated by FACSAriaIII.

For test [10] the target is unchanged. The description is as above. As to the method: as §2
The source holds these as a separate data set.

Test [11] shares this target. The description is as above. As to the method: as §2
This is another data set of the same source.

The target of test [12] is T1, human PD-L1 (construct not stated). Nature of the test: SPR Biacore, affinity ranking.
In test [13] the target is T3, human PD-L1 expressed on mammalian cells. Put plainly: cell-based binding on Raji-PDL1 cells (FACS by paragraph 328; the y axis of the sheet is labelled IL2 (ng/ml)); EC50 table has no unit, x axis Concentration (nM). As to the method: To evaluate the antigen binding property, the antibodies were analyzed for its binding to mammalian expressed PD-L1 by FACS. Briefly, PDL1-Raji cells were firstly incubated with 5-fold serious diluted humanized antibodies starting at 2 µg/ml at RT for 1 hour. After wash by FACS buffer (PBS with 2% FBS), the Alexa 488-anti-human IgG antibody was added to each well and incubated at RT for 1 hour. The MFI of Alexa 488 was evaluated by FACSAriaIII.

Read-outs that look alike come from different tables or passages of the source.

T4 sequence (Q9NZQ7 19-239 limits assumed): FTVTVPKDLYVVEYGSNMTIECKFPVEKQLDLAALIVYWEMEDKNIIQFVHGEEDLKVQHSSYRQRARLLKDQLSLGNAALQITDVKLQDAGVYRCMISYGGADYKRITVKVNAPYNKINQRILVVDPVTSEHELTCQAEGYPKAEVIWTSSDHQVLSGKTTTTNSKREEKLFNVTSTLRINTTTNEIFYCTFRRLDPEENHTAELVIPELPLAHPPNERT
T1 sequence (Q9NZQ7 19-239 limits assumed): as above
T2 sequence (Q9NZQ7 19-239 limits assumed): as above

B1: H1210 chimera (antibody, V domains shown)
VH: EVKLVESGGDLVKPGGSLKLSCAASGFTFSSYDMSWVRQTPEKSLEWVATISDGGGYIYYSDSVKGRFTISRDNAKNNLYLQMSSLRSEDTALYICAREFGKRYALDYWGQGTSVTVSS
VL: DIVMTQSHKFMSTSVGDRVSISCKASQDVTPAVAWYQQKPGQSPKLLIYSTSSRYTGVPDRFTGSGSGTDFTFTISSVQAEDLAVYYCQQHYTTPLTFGAGTKLELK
notes: also called chimeric antibody
As for B1, the figures for the Kd in test [1] and in [2] were 1070 pM and 264 pM, respectively. Moreover, the koff was found to be 0.000173 s⁻¹ in test [1] and 3.27e-05 s⁻¹ in [2]. Also, the kon in test [1] was 162000 M⁻¹ s⁻¹; in [2] it was 124000 M⁻¹ s⁻¹. In [3], the TOP stood at 87.2. In addition, the concentration giving a half-maximal response (EC50) with human PD-L1-Fc protein [4] came to 177 pM; with human PD-L1-Fc protein [5] it was 139 pM; in the test with human PD-L1-Fc protein [6], 169 pM; with human PD-L1-Fc protein [7] it was 160 pM; in the test with human PD-L1-Fc protein [8], 170 pM; in test [9] it was 950 pM. Further, the concentration for a half-maximal effect (EC50) in test [10] and in test [11] was 950 pM each time.

B2: WT (parental clone of the Hu1210-41 engineering) (antibody, V domains shown)
VH: EVQLVESGGGLVQPGGSLRLSCAASGFTFSSYDMSWVRQAPGKSLEWVATISDAGGYIYYRDSVKGRFTISRDNAKNSLYLQMNSLRDEDTAVYICAREFGKRYALDYWGQGTTVTVSS
VL: DIQMTQSPSSLSASVGDRVTITCKASQDVTPAVAWYQQKPGKAPKLLIYSTSSRYTGVPSRFSGSGSGTDFTFTISSLQPEDIATYYCQQHYTTPLTFGQGTKLEIK
notes: Differs from Hu1210-41 by S60R (Kabat) in the heavy chain; also called parental antibody WT; parent antibody WT
In [12], B2 had a Kd of 2630 pM, a koff of 0.000464 s⁻¹ and a kon of 177000 M⁻¹ s⁻¹. The molecule also registered a 50% effective concentration (EC50) in test [13] of 5040 pM.
